“Also recorded” adds a separate entry of the source.
Molecular target: T1, HLA-A2 on T2 cells (Homo sapiens, UniProt P04439, D140Y/D185E/D98H/E176V/E277Q/G131W/G231S/I119V/I121R/I166T/I218V/L300P/L318F/N151K/N90K/P208A/P217A/Q86G/Q94H/R138H/R169H/T345S)
T1 construct: T2 cell line expressing the HLA-A2 molecules was obtained from Dr Peter Creswell; endogenous in cells; host or cells: T2 cell line (TAP-deficient human cell line)
Assay: in vitro HLA-A2 stabilization (peptide-induced MHC class 1 assembly assay, FACS) on T2 cells
Format: cell-based
Conditions: FIG. 1; for binding to and stabilization of membrane-bound HLA-A2 (shift of fluorescent peak): BB7.2 antibody, FACS
Description: Location of the potential CTL containing motifs of the HIV-1 (LAI) Rev protein has been predicted by the reported peptide-binding motif algorithms. […] The ability of the peptides containing these motifs to bind and stabilize membrane-bound HLA-A2 molecule was assessed using the T2 cell line. The cell line has been well documented to have defective TAP transporter function resulting in the majority of the intracellularly generated peptides being unable to be transported into the endoplasmic reticulum to associate with the newly synthesized HLA class 1 molecules, i.e. HLA-A2 (see references 4, 5). […] Upon interaction with suitable peptides introduced exogenously, the stability of the HLA-A2 molecules can be restored.
T2 cell line expressing the HLA-A2 molecules was obtained from Dr Peter Creswell at the Howard Hughes Research Institute of Yale University. The cells were propagated in Iscove's complete medium (Iscove's medium supplemented with 10% heat-inactivated bovine serum, 120.0 units per ml of penicilin G sodium, 120 μg per ml of streptomycin sulphate, and 0.35 mg per ml of L-glutamine). The ability of individual 8 to 13 mer peptides, prepared as described in Example 1 and identified in Table 1, to bind and modulate the stability of the A2 molecules on T2 cells was determined using a peptide-induced MHC class 1 assembly assay, which was modified from a protocol described by Yuping Deng et al. (ref. 6).
In essence, 1×10^6 T2 cells were incubated with a specified concentration of the test peptide in 250.0 μl of Iscove's serum-free medium (Iscove's medium supplemented with 120.0 units per ml of penicillin G sodium, 120.0 μg per ml of streptomycin sulphate and 0.35 mg per ml of L-glutamine) in a sterile Eppendorf tube at 37° C. overnight. The cells were then incubated on ice for 30 min before 1.0 ml of Iscove's complete medium supplemented with 5.0 μg per ml of brefeldin A, 12.5 μg per ml of anisomycin and 5.0 μg per ml of cyclohexamide was added. The samples were then incubated for 3.0 hr in a 37° C. CO2 incubator.
In the presence of the drugs, further protein synthesis and intracellular delivery of HLA-A2 molecules to the cell surface are inhibited, and de-stabilization of the conformation of the membrane-bound class 1 molecules at the physiological temperature occurs.
The cells were then washed twice with ice-cold PBA (a buffer containing 0.9% sodium chloride, 0.5% bovine serum albumin and 0.02% sodium azide). 100.0 μl of PBA containing 5.0 μg of a conformation-sensitive HLA-A2-specific mouse monoclonal antibody, BB7.2 (ref. 7), was then added to each test sample. The reaction was allowed to take place on ice for 45 min. The cells were then washed three times with ice-cold PBA.
The binding of BB7.2 was then detected by adding […] containing 1.0 μg of goat anti-mouse IgG F(ab′) fluorescein (FITC) conjugate to each cell sample. After 30 min incubation on ice, the cells were washed twice with PBA, and twice again with PBS, pH 7.2. Cells were fixed immediately after washing was completed by adding 100.0 μl of 1.0% paraformaldehyde to the cell pellet. The cells were gently resuspended and were FACS analysed usually within three days after the experiments were completed.
The fluorescence index, which is an indicator for increased density of membrane-bound A2 molecules, was calculated by dividing the mean fluorescence of an experimental sample (peptide treated T2 cells) by the mean fluorescence of the control sample (T2 cells not treated with peptide).

Sequence	binding to and stabilization of membrane-bound HLA-A2 (shift of fluorescent peak)	order of potency by comparison of fluorescence indices
YLGRSAEPV (Human immunodeficiency virus type 1) [CLP-177]	bound to HLA-A2 on T2 cells; also recorded: able to bind and stabilize; also recorded: capable of binding to HLA-A2 on T2 cells	CLP-177>CLP-72>CLP-178>CLP-182
YLGRSAEPVPL (Human immunodeficiency virus type 1) [CLP-178]	bound to HLA-A2 on T2 cells; also recorded: able to bind and stabilize; also recorded: capable of binding to HLA-A2 on T2 cells	CLP-177>CLP-72>CLP-178>CLP-182
PLQLPPLERLIL [CLP-182]	bound to HLA-A2 on T2 cells; also recorded: able to bind and stabilize; also recorded: capable of binding to HLA-A2 on T2 cells	CLP-177>CLP-72>CLP-178>CLP-182
ILVESPAVL (Human immunodeficiency virus type 1) [CLP-72]	bound to HLA-A2 on T2 cells; also recorded: able to bind and stabilize; also recorded: capable of binding to HLA-A2 on T2 cells	CLP-177>CLP-72>CLP-178>CLP-182

Reference: US7105164B1, “HIV-specific cytotoxic T-cell responses” (priority 1999, dated 2006)
